Substrate: NC(=O)c1ccc[n+]([C@@H]2O[C@H](COP(=O)([O-])OP(=O)(O)OC[C@H]3O[C@@H](n4cnc5c(N)ncnc54)[C@H](O)[C@@H]3O)[C@@H](O)[C@H]2O)c1
Assay: Michaelis-Menten kinetics of NAD+ cleavage by purified SARM1-TIR, HPLC
Format: biochemical, Homo sapiens
Conditions: E642 is a putative key catalytic residue within the active site

B1: SARM1-TIR (Homo sapiens) (protein)
chain: DTPDVFISYRRNSGSQLASLLKVHLQLHGFSVFIDVEKLEAGKFEDKLIQSVMGARNFVLVLSPGALDKCMQDHDCKDWVHKEIVTALSCGKNIVPIIDGFEWPEPQVLPEDMQAVLTFNGIKWSHEYQEATIEKIIRFLQGRS
Km: 24 µM

From publication PMC6284238
